Bridges are numbered along the chain shown (N, C = ends). [ ]: non-standard residue; d: D form. 2Nal = N[C@@H](Cc1ccc2ccccc2c1)C(=O)O; Cit = NC(=O)NCCC[C@H](N)C(=O)O
B1: Example 89 (peptide)
peptide: cyclo(SR[Cit]CRG[dP]RR[2Nal]CYQK[dP]P)
modifications: disulfide 4-11
SMILES: N=C(N)NCCC[C@@H]1NC(=O)[C@@H]2CSSC[C@H](NC(=O)[C@H](Cc3ccc4ccccc4c3)NC(=O)[C@H](CCCNC(=N)N)NC(=O)[C@H](CCCNC(=N)N)NC(=O)[C@H]3CCCN3C(=O)CNC1=O)C(=O)N[C@@H](Cc1ccc(O)cc1)C(=O)N[C@@H](CCC(N)=O)C(=O)N[C@@H](CCCCN)C(=O)N1CCC[C@@H]1C(=O)N1CCC[C@H]1C(=O)N[C@@H](CO)C(=O)N[C@@H](CCCNC(=N)N)C(=O)N[C@@H](CCCNC(N)=O)C(=O)N2
B2: Example 78 (peptide)
peptide: cyclo(YR[Cit]CRG[dP]RR[2Nal]CYDK[dP]P)
modifications: disulfide 4-11
SMILES: N=C(N)NCCC[C@@H]1NC(=O)[C@@H]2CSSC[C@H](NC(=O)[C@H](Cc3ccc4ccccc4c3)NC(=O)[C@H](CCCNC(=N)N)NC(=O)[C@H](CCCNC(=N)N)NC(=O)[C@H]3CCCN3C(=O)CNC1=O)C(=O)N[C@@H](Cc1ccc(O)cc1)C(=O)N[C@@H](CC(=O)O)C(=O)N[C@@H](CCCCN)C(=O)N1CCC[C@@H]1C(=O)N1CCC[C@H]1C(=O)N[C@@H](Cc1ccc(O)cc1)C(=O)N[C@@H](CCCNC(=N)N)C(=O)N[C@@H](CCCNC(N)=O)C(=O)N2
B3: Example 82 (peptide)
peptide: cyclo(YR[Cit]CRG[dP]RR[2Nal]CYLK[dP]P)
modifications: disulfide 4-11
SMILES: CC(C)C[C@@H]1NC(=O)[C@H](Cc2ccc(O)cc2)NC(=O)[C@@H]2CSSC[C@H](NC(=O)[C@H](CCCNC(N)=O)NC(=O)[C@H](CCCNC(=N)N)NC(=O)[C@H](Cc3ccc(O)cc3)NC(=O)[C@@H]3CCCN3C(=O)[C@H]3CCCN3C(=O)[C@H](CCCCN)NC1=O)C(=O)N[C@@H](CCCNC(=N)N)C(=O)NCC(=O)N1CCC[C@@H]1C(=O)N[C@@H](CCCNC(=N)N)C(=O)N[C@@H](CCCNC(=N)N)C(=O)N[C@@H](Cc1ccc3ccccc3c1)C(=O)N2
B4: Example 86 (peptide)
peptide: cyclo(YR[Cit]CRG[dP]RR[2Nal]CYQA[dP]P)
modifications: disulfide 4-11
SMILES: C[C@@H]1NC(=O)[C@H](CCC(N)=O)NC(=O)[C@H](Cc2ccc(O)cc2)NC(=O)[C@@H]2CSSC[C@H](NC(=O)[C@H](CCCNC(N)=O)NC(=O)[C@H](CCCNC(=N)N)NC(=O)[C@H](Cc3ccc(O)cc3)NC(=O)[C@@H]3CCCN3C(=O)[C@H]3CCCN3C1=O)C(=O)N[C@@H](CCCNC(=N)N)C(=O)NCC(=O)N1CCC[C@@H]1C(=O)N[C@@H](CCCNC(=N)N)C(=O)N[C@@H](CCCNC(=N)N)C(=O)N[C@@H](Cc1ccc3ccccc3c1)C(=O)N2
B5: Example 83 (peptide)
peptide: cyclo(YR[Cit]CRG[dP]RR[2Nal]CYMK[dP]P)
modifications: disulfide 4-11
SMILES: CSCC[C@@H]1NC(=O)[C@H](Cc2ccc(O)cc2)NC(=O)[C@@H]2CSSC[C@H](NC(=O)[C@H](CCCNC(N)=O)NC(=O)[C@H](CCCNC(=N)N)NC(=O)[C@H](Cc3ccc(O)cc3)NC(=O)[C@@H]3CCCN3C(=O)[C@H]3CCCN3C(=O)[C@H](CCCCN)NC1=O)C(=O)N[C@@H](CCCNC(=N)N)C(=O)NCC(=O)N1CCC[C@@H]1C(=O)N[C@@H](CCCNC(=N)N)C(=O)N[C@@H](CCCNC(=N)N)C(=O)N[C@@H](Cc1ccc3ccccc3c1)C(=O)N2
B6: Example 80 (peptide)
peptide: cyclo(YR[Cit]CRG[dP]RR[2Nal]CYAK[dP]P)
modifications: disulfide 4-11
SMILES: C[C@@H]1NC(=O)[C@H](Cc2ccc(O)cc2)NC(=O)[C@@H]2CSSC[C@H](NC(=O)[C@H](CCCNC(N)=O)NC(=O)[C@H](CCCNC(=N)N)NC(=O)[C@H](Cc3ccc(O)cc3)NC(=O)[C@@H]3CCCN3C(=O)[C@H]3CCCN3C(=O)[C@H](CCCCN)NC1=O)C(=O)N[C@@H](CCCNC(=N)N)C(=O)NCC(=O)N1CCC[C@@H]1C(=O)N[C@@H](CCCNC(=N)N)C(=O)N[C@@H](CCCNC(=N)N)C(=O)N[C@@H](Cc1ccc3ccccc3c1)C(=O)N2
B7: Example 6 (peptide)
peptide: cyclo(YR[Cit]VRRR[2Nal]VY[Cit]K[dP]P)
SMILES: CC(C)[C@@H]1NC(=O)[C@H](CCCNC(N)=O)NC(=O)[C@H](CCCNC(=N)N)NC(=O)[C@H](Cc2ccc(O)cc2)NC(=O)[C@@H]2CCCN2C(=O)[C@H]2CCCN2C(=O)[C@H](CCCCN)NC(=O)[C@H](CCCNC(N)=O)NC(=O)[C@H](Cc2ccc(O)cc2)NC(=O)[C@H](C(C)C)NC(=O)[C@H](Cc2ccc3ccccc3c2)NC(=O)[C@H](CCCNC(=N)N)NC(=O)[C@H](CCCNC(=N)N)NC(=O)[C@H](CCCNC(=N)N)NC1=O
B8: Example 88 (peptide)
peptide: cyclo(DR[Cit]CRG[dP]RR[2Nal]CYQK[dP]P)
modifications: disulfide 4-11
SMILES: N=C(N)NCCC[C@@H]1NC(=O)[C@@H]2CSSC[C@H](NC(=O)[C@H](Cc3ccc4ccccc4c3)NC(=O)[C@H](CCCNC(=N)N)NC(=O)[C@H](CCCNC(=N)N)NC(=O)[C@H]3CCCN3C(=O)CNC1=O)C(=O)N[C@@H](Cc1ccc(O)cc1)C(=O)N[C@@H](CCC(N)=O)C(=O)N[C@@H](CCCCN)C(=O)N1CCC[C@@H]1C(=O)N1CCC[C@H]1C(=O)N[C@@H](CC(=O)O)C(=O)N[C@@H](CCCNC(=N)N)C(=O)N[C@@H](CCCNC(N)=O)C(=O)N2
B9: Example 87 (peptide)
peptide: cyclo(YR[Cit]CRG[dP]RR[2Nal]CYQS[dP]P)
modifications: disulfide 4-11
SMILES: N=C(N)NCCC[C@@H]1NC(=O)[C@@H]2CSSC[C@H](NC(=O)[C@H](Cc3ccc4ccccc4c3)NC(=O)[C@H](CCCNC(=N)N)NC(=O)[C@H](CCCNC(=N)N)NC(=O)[C@H]3CCCN3C(=O)CNC1=O)C(=O)N[C@@H](Cc1ccc(O)cc1)C(=O)N[C@@H](CCC(N)=O)C(=O)N[C@@H](CO)C(=O)N1CCC[C@@H]1C(=O)N1CCC[C@H]1C(=O)N[C@@H](Cc1ccc(O)cc1)C(=O)N[C@@H](CCCNC(=N)N)C(=O)N[C@@H](CCCNC(N)=O)C(=O)N2
B10: Example 79 (peptide)
peptide: cyclo(YR[Cit]CRG[dP]RR[2Nal]CYKK[dP]P)
modifications: disulfide 4-11
SMILES: N=C(N)NCCC[C@@H]1NC(=O)[C@@H]2CSSC[C@H](NC(=O)[C@H](Cc3ccc4ccccc4c3)NC(=O)[C@H](CCCNC(=N)N)NC(=O)[C@H](CCCNC(=N)N)NC(=O)[C@H]3CCCN3C(=O)CNC1=O)C(=O)N[C@@H](Cc1ccc(O)cc1)C(=O)N[C@@H](CCCCN)C(=O)N[C@@H](CCCCN)C(=O)N1CCC[C@@H]1C(=O)N1CCC[C@H]1C(=O)N[C@@H](Cc1ccc(O)cc1)C(=O)N[C@@H](CCCNC(=N)N)C(=O)N[C@@H](CCCNC(N)=O)C(=O)N2
B11: Example 85 (peptide)
peptide: cyclo(YR[Cit]CRG[dP]RR[2Nal]CYQD[dP]P)
modifications: disulfide 4-11
SMILES: N=C(N)NCCC[C@@H]1NC(=O)[C@@H]2CSSC[C@H](NC(=O)[C@H](Cc3ccc4ccccc4c3)NC(=O)[C@H](CCCNC(=N)N)NC(=O)[C@H](CCCNC(=N)N)NC(=O)[C@H]3CCCN3C(=O)CNC1=O)C(=O)N[C@@H](Cc1ccc(O)cc1)C(=O)N[C@@H](CCC(N)=O)C(=O)N[C@@H](CC(=O)O)C(=O)N1CCC[C@@H]1C(=O)N1CCC[C@H]1C(=O)N[C@@H](Cc1ccc(O)cc1)C(=O)N[C@@H](CCCNC(=N)N)C(=O)N[C@@H](CCCNC(N)=O)C(=O)N2
B12: Example 84 (peptide)
peptide: cyclo(YR[Cit]CRG[dP]RR[2Nal]CYQN[dP]P)
modifications: disulfide 4-11
SMILES: N=C(N)NCCC[C@@H]1NC(=O)[C@@H]2CSSC[C@H](NC(=O)[C@H](Cc3ccc4ccccc4c3)NC(=O)[C@H](CCCNC(=N)N)NC(=O)[C@H](CCCNC(=N)N)NC(=O)[C@H]3CCCN3C(=O)CNC1=O)C(=O)N[C@@H](Cc1ccc(O)cc1)C(=O)N[C@@H](CCC(N)=O)C(=O)N[C@@H](CC(N)=O)C(=O)N1CCC[C@@H]1C(=O)N1CCC[C@H]1C(=O)N[C@@H](Cc1ccc(O)cc1)C(=O)N[C@@H](CCCNC(=N)N)C(=O)N[C@@H](CCCNC(N)=O)C(=O)N2
B13: Example 81 (peptide)
peptide: cyclo(YR[Cit]CRG[dP]RR[2Nal]CYSK[dP]P)
modifications: disulfide 4-11
SMILES: N=C(N)NCCC[C@@H]1NC(=O)[C@@H]2CSSC[C@H](NC(=O)[C@H](Cc3ccc4ccccc4c3)NC(=O)[C@H](CCCNC(=N)N)NC(=O)[C@H](CCCNC(=N)N)NC(=O)[C@H]3CCCN3C(=O)CNC1=O)C(=O)N[C@@H](Cc1ccc(O)cc1)C(=O)N[C@@H](CO)C(=O)N[C@@H](CCCCN)C(=O)N1CCC[C@@H]1C(=O)N1CCC[C@H]1C(=O)N[C@@H](Cc1ccc(O)cc1)C(=O)N[C@@H](CCCNC(=N)N)C(=O)N[C@@H](CCCNC(N)=O)C(=O)N2
B14: Example 77 (peptide)
peptide: cyclo(YR[Cit]CRG[dP]RR[2Nal]CYNK[dP]P)
modifications: disulfide 4-11
SMILES: N=C(N)NCCC[C@@H]1NC(=O)[C@@H]2CSSC[C@H](NC(=O)[C@H](Cc3ccc4ccccc4c3)NC(=O)[C@H](CCCNC(=N)N)NC(=O)[C@H](CCCNC(=N)N)NC(=O)[C@H]3CCCN3C(=O)CNC1=O)C(=O)N[C@@H](Cc1ccc(O)cc1)C(=O)N[C@@H](CC(N)=O)C(=O)N[C@@H](CCCCN)C(=O)N1CCC[C@@H]1C(=O)N1CCC[C@H]1C(=O)N[C@@H](Cc1ccc(O)cc1)C(=O)N[C@@H](CCCNC(=N)N)C(=O)N[C@@H](CCCNC(N)=O)C(=O)N2

molecular target: human CXCR4 (human, UniProt P61073 1-352); test: cell-based or functional assay
Sequence (P61073 whole entry): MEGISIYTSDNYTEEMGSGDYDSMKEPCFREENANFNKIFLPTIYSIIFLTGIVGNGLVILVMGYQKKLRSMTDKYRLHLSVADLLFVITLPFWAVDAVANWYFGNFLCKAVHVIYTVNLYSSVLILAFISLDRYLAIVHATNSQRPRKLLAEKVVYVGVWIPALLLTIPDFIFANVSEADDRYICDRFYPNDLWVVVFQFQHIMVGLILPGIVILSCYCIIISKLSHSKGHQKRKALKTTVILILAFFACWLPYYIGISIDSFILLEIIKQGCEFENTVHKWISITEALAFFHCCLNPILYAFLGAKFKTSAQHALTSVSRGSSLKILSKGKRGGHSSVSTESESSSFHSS

| Binder | IC50 (nM) Ca2+ assay (method 2) [nM] | IC50 (nM) Ca2+ assay (method 1) [nM] |
| --- | --- | --- |
| B1 | 0.5 |  |
| B2 | 11 |  |
| B3 | 4.8 |  |
| B4 | 0.69 |  |
| B5 | 3.7 |  |
| B6 | 2.9 |  |
| B7 |  | 1930 |
| B8 | 2.5 |  |
| B9 | 3.5 |  |
| B10 | 2.4 |  |
| B11 | 2.7 |  |
| B12 | 3.9 |  |
| B13 | 4.9 |  |
| B14 | 7 |  |
